Blank lines part the entries; values can stand above or below the binder they belong to.
Key:
[1] = biological target: SpyCas9 (S. pyogenes), Q99ZW2; experiment: cell-based or functional assay
Peptide 15 = biological target: T1, Peptide 15
T1 chain: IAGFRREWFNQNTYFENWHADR

Peptide 99 = biological target: T2, Peptide 99
T2 chain: RRSHIAWLLAMSLTWYS

Peptide 60 = biological target: T3, Peptide 60
T3 chain: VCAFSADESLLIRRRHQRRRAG

Peptide 91 = biological target: T4, Peptide 91
T4 chain: VYDFYRMLSHFFLKGPSR

Peptide 90 = biological target: T5, Peptide 90
T5 chain: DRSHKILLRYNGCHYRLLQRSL

B4: Peptide 50 (peptide)
peptide: LYYRIMLSCPKYYPCELVGHTS
modifications: not checked
IC50(uM), FRET cleavage assay [1]: 145 µM
reduced editing (compared to plasmid control), A549 GFP reporter cells [1]: 30%

B6: Peptide 15 (peptide)
peptide: IAGFRREWFNQNTYFENWHADR
modifications: not checked
reduced editing (compared to plasmid control), A549 GFP reporter cells [1]: 21%

B7: SauCas9 (protein)
chain: MKRNYILGLDIGITSVGYGIIDYETRDVIDAGVRLFKEANVENNEGRRSKRGARRLKRRRRHRIQRVKKLLFDYNLLTDHSELSGINPYEARVKGLSQKLSEEEFSAALLHLAKRRGVHNVNEVEEDTGNELSTKEQISRNSKALEEKYVAELQLERLKKDGEVRGSINRFKTSDYVKEAKQLLKVQKAYHQLDQSFIDTYIDLLETRRTYYEGPGEGSPFGWKDIKEWYEMLMGHCTYFPEELRSVKYAYNADLYNALNDLNNLVITRDENEKLEYYEKFQIIENVFKQKKKPTLKQIAKEILVNEEDIKGYRVTSTGKPEFTNLKVYHDIKDITARKEIIENAELLDQIAKILTIYQSSEDIQEELTNLNSELTQEEIEQISNLKGYTGTHNLSLKAINLILDELWHTNDNQIAIFNRLKLVPKKVDLSQQKEIPTTLVDDFILSPVVKRSFIQSIKVINAIIKKYGLPNDIIIELAREKNSKDAQKMINEMQKRNRQTNERIEEIIRTTGKENAKYLIEKIKLHDMQEGKCLYSLEAIPLEDLLNNPFNYEVDHIIPRSVSFDNSFNNKVLVKQEENSKKGNRTPFQYLSSSDSKISYETFKKHILNLAKGKGRISKTKKEYLLEERDINRFSVQKDFINRNLVDTRYATRGLMNLLRSYFRVNNLDVKVKSINGGFTSFLRRKWKFKKERNKGYKHHAEDALIIANADFIFKEWKKLDKAKKVMENQMFEEKQAESMPEIETEQEYKEIFITPHQIKHIKDFKDYKYSHRVDKKPNRELINDTLYSTRKDDKGNTLIVNNLNGLYDKDNDKLKKLINKSPEKLLMYHHDPQTYQKLKLIMEQYGDEKNPLYKYYEETGNYLTKYSKKDNGPVIKKIKYYGNKLNAHLDITDDYPNSRNKVVKLSLKPYRFDVYLDNGVYKFVTVKNLDVIKKENYYEVNSKCYEEAKKLKKISNQAEFIASFYNNDLIKINGELYRVIGVNNDLLNRIEVNMIDITYREYLENMNDKRPPRIIKTIASKTQSIKKYSTDILGNLYEVKSKKHPQIIKKG
reduction in cleavage-based fluorescence at 200 µM peptide, FRET assay (Many MPs): Many MPs also reduced SauCas9 and CjeCas9 mediated cleavage at 200 µM with a greater than 80% reduction in fluorescence
% activity, FRET cleavage assay (Peptide 15): Peptide15 significantly reduced activity of CjeCas9 and SpyCas9 and SauCas9 at 200 µM (P<0.01)
% activity, FRET cleavage assay (Peptide 99): Peptide 99 significantly reduced activity of all three Cas9 variants at 100 and 200 µM (P<0.005)
% activity, FRET cleavage assay (Peptide 60): Peptide 60, 90, and 91 significantly reduced activity of SauCas9 and SpyCas9 at 200 µM (P<0.005)
% activity, FRET cleavage assay (Peptide 91): Peptide 60, 90, and 91 significantly reduced activity of SauCas9 and SpyCas9 at 200 µM (P<0.005)
% activity, FRET cleavage assay (Peptide 90): Peptide 60, 90, and 91 significantly reduced activity of SauCas9 and SpyCas9 at 200 µM (P<0.005)

B9: CjeCas9 (protein)
chain: MARILAFDIGISSIGWAFSENDELKDCGVRIFTKVENPKTGESLALPRRLARSARKRLARRKARLNHLKHLIANEFKLNYEDYQSFDESLAKAYKGSLISPYELRFRALNELLSKQDFARVILHIAKRRGYDDIKNSDDKEKGAILKAIKQNEEKLANYQSVGEYLYKEYFQKFKENSKEFTNVRNKKESYERCIAQSFLKDELKLIFKKQREFGFSFSKKFEEEVLSVAFYKRALKDFSHLVGNCSFFTDEKRAPKNSPLAFMFVALTRIINLLNNLKNTEGILYTKDDLNALLNEVLKNGTLTYKQTKKLLGLSDDYEFKGEKGTYFIEFKKYKEFIKALGEHNLSQDDLNEIAKDITLIKDEIKLKKALAKYDLNQNQIDSLSKLEFKDHLNISFKALKLVTPLMLEGKKYDEACNELNLKVAINEDKKDFLPAFNETYYKDEVTNPVVLRAIKEYRKVLNALLKKYGKVHKINIELAREVGKNHSQRAKIEKEQNENYKAKKDAELECEKLGLKINSKNILKLRLFKEQKEFCAYSGEKIKISDLQDEKMLEIDHIYPYSRSFDDSYMNKVLVFTKQNQEKLNQTPFEAFGNDSAKWQKIEVLAKNLPTKKQKRILDKNYKDKEQKNFKDRNLNDTRYIARLVLNYTKDYLDFLPLSDDENTKLNDTQKGSKVHVEAKSGMLTSALRHTWGFSAKDRNNHLHHAIDAVIIAYANNSIVKAFSDFKKEQESNSAELYAKKISELDYKNKRKFFEPFSGFRQKVLDKIDEIFVSKPERKKPSGALHEETFRKEEEFYQSYGGKEGVLKALELGKIRKVNGKIVKNGDMFRVDIFKHKKTNKFYAVPIYTMDFALKVLPNKAVARSKKGEIKDWILMDENYEFCFSLYKDSLILIQTKDMQEPEFVYYNAFTSSTVSLIVSKHDNKFETLSKNQKILFKNANEKEVIAKSIGIQNLKVFEKYIVSALGEVTKAEFRQREDFKK
reduction in cleavage-based fluorescence at 200 µM peptide, FRET assay (Many MPs): Many MPs also reduced SauCas9 and CjeCas9 mediated cleavage at 200 µM with a greater than 80% reduction in fluorescence
% activity, FRET cleavage assay (Peptide 15): Peptide15 significantly reduced activity of CjeCas9 and SpyCas9 and SauCas9 at 200 µM (P<0.01)
% activity, FRET cleavage assay (Peptide 99): Peptide 99 significantly reduced activity of all three Cas9 variants at 100 and 200 µM (P<0.005)

Second part, the binder after the results:

IC50(uM), FRET cleavage assay [1]: 97.9 µM
B1: Peptide 63 (peptide)
peptide: LNVKIGNAHLTTIMSTMPLVLC
modifications: not checked

IC50(uM), FRET cleavage assay [1]: 92.2 µM
reduced editing (compared to plasmid control), A549 GFP reporter cells [1]: 30%
B2: Peptide 60 (peptide)
peptide: VCAFSADESLLIRRRHQRRRAG
modifications: not checked

IC50(uM), FRET cleavage assay [1]: 48.5 µM
B3: Peptide 99 (peptide)
peptide: RRSHIAWLLAMSLTWYS
modifications: not checked

IC50(uM), FRET cleavage assay [1]: > 200 µM
B5: Peptide 82 (peptide)
peptide: KERRRSLMQLSVKSNSLFLGGT
modifications: not checked

IC50(uM), FRET cleavage assay [1]: 114 µM
reduced editing (compared to plasmid control), A549 GFP reporter cells [1]: 35%
B8: Peptide 90 (peptide)
peptide: DRSHKILLRYNGCHYRLLQRSL
modifications: not checked
